# Test results reported in PMC10015101.
# Columns and labels:
# Assay in all cases: SEC
# [1] = target: BM48-31 soluble spike ectodomain, stabilised (2P, GSAS linker, T4 fibritin trimerization motif) (bat sarbecovirus BM48-31 | bacteriophage T4)
# [2] = target: BtKY72 soluble spike ectodomain, stabilised (2P, GSAS linker, T4 fibritin trimerization motif) (bat sarbecovirus BtKY72 | bacteriophage T4)
# [3] = target: Pang17 soluble spike ectodomain, stabilised (2P, GSAS linker, T4 fibritin trimerization motif) (pangolin sarbecovirus pang17 | bacteriophage T4)
# [4] = target: RaTG13 soluble spike ectodomain, stabilised (2P, GSAS linker, T4 fibritin trimerization motif) (bat sarbecovirus RaTG13 | bacteriophage T4)
# [5] = target: RmYN02 soluble spike ectodomain, stabilised (2P, GSAS linker, T4 fibritin trimerization motif) (bat sarbecovirus RmYN02 | bacteriophage T4)
# [6] = target: Rs4081 soluble spike ectodomain, stabilised (2P, GSAS linker, T4 fibritin trimerization motif) (bat sarbecovirus RS4081 | bacteriophage T4)
# [7] = target: RsSHC014 soluble spike ectodomain, stabilised (2P, GSAS linker, T4 fibritin trimerization motif) (bat sarbecovirus RsSHC014 | bacteriophage T4) (UniProt U5WLK5)
# [8] = target: WIV1 soluble spike ectodomain, stabilised (2P, GSAS linker, T4 fibritin trimerization motif) (bat sarbecovirus WIV1 | bacteriophage T4) (UniProt U5WI05)
# [9] = target: Yun11 soluble spike ectodomain, stabilised (2P, GSAS linker, T4 fibritin trimerization motif) (sarbecovirus Yun11 | bacteriophage T4)
substance,measurement,setting,value
"BM48-31 soluble spike ectodomain, stabilised (2P, GSAS linker, T4 fibritin trimerization motif) (domain or fragment)",stoichiometry N,[1],3
"BtKY72 soluble spike ectodomain, stabilised (2P, GSAS linker, T4 fibritin trimerization motif) (domain or fragment)",stoichiometry N,[2],3
"Pang17 soluble spike ectodomain, stabilised (2P, GSAS linker, T4 fibritin trimerization motif) (domain or fragment)",stoichiometry N,[3],3
"RaTG13 soluble spike ectodomain, stabilised (2P, GSAS linker, T4 fibritin trimerization motif) (domain or fragment)",stoichiometry N,[4],3
"RmYN02 soluble spike ectodomain, stabilised (2P, GSAS linker, T4 fibritin trimerization motif) (domain or fragment)",stoichiometry N,[5],3
"Rs4081 soluble spike ectodomain, stabilised (2P, GSAS linker, T4 fibritin trimerization motif) (domain or fragment)",stoichiometry N,[6],3
"RsSHC014 soluble spike ectodomain, stabilised (2P, GSAS linker, T4 fibritin trimerization motif) (from UniProt U5WLK5 1-1191) (domain or fragment)",stoichiometry N,[7],3
"WIV1 soluble spike ectodomain, stabilised (2P, GSAS linker, T4 fibritin trimerization motif) (from UniProt U5WI05 1-1191) (domain or fragment)",stoichiometry N,[8],3
"Yun11 soluble spike ectodomain, stabilised (2P, GSAS linker, T4 fibritin trimerization motif) (domain or fragment)",stoichiometry N,[9],3
